We go through two substances from publication PMC5071168.

What is called stoichiometry N is a count of units in the complex or per binding partner.

Test [1] addresses LvTIM-Cys47Ala (Litopenaeus vannamei).
The target of test [2] is triosephosphate isomerase from Litopenaeus vannamei (LvTIM), wild type (Litopenaeus vannamei). The experiment in a line: SEC. On the technique in general: Size exclusion chromatography separates by hydrodynamic size, large species first.

In turn, LvTIM-Cys47Ala (enzyme) showed a catalytic efficiency (kcat/Km) of LvTIM-Cys47Ala, similar to wild-type LvTIM in test [1] of 2.33e+06 M⁻¹ s⁻¹.
In turn, “triosephosphate isomerase from Litopenaeus vannamei (LvTIM), wild type (enzyme)” displayed a stoichiometry N in test [2] of 2.
